Experimental data from US10662230B2, “Cyclic RGD cell-binding motif and uses thereof” (Spiber Technologies AB, priority 2015, dated 2020).

Columns and labels:
Type in all cases: cell-based
[1] = tested on: Normal human epidermal keratinocytes (KC); test: Early attachment assay, keratinocytes on silk films; settings: for adhesion in each individual experiment: KC on tested silk films
Description: Normal human epidermal keratinocytes from adult skin (NHEK-ad) were purchased from Lonza. Subculture, proliferation and migration experiments were done in KGM-Gold (Lonza), containing bovine pituitary extract, whereas adhesion experiments were performed in KGM-CD (chemically defined), supplemented with CaCl2) to give 1.2 mM Ca^2+.
Cells were harvested at passage 3-8, seeded at 20 000/cm^2 and allowed to adhere to the films or controls for 1 h in a cell incubator before gentle washing twice with pre-warmed phosphate buffered saline (PBS) followed by 10 min fixation with 96% ethanol. After three washings in water, cells were stained for 30 min with 0.1% Crystal Violet in H2O. Plates were dried after extensive washing in water.
Attachment and morphology of cells bound to the films obtained in Example 3 were documented by taking micrographs at 2× and 10× magnification in an inverted bright field microscope. The color was then dissolved in 40 μL 20% acetic acid for 10 min, and 35 μL of the solution was transferred to a 384-well plate for optical density measurement at 595 nm (TECAN Infinite M200). Wells with cells fixed without pre-washing was used as positive control. Wells with no cells were used as blank. Experiments were run in hexaplicates and repeated three times.
Determination of cell coverage area within a defined region (9.12 mm^2) of the micrographs (at 2× magnification) was done using the software NIS elements BR (Nikon).
After seeing this positive effect of the introduced FNCC motif, we wanted to find out how well the FNCC-silk would compare to native, full length fibronectin, where the RGD is presented on a turn loop constrained by the structure. We therefore used fibronectin from bovine plasma (BFN) to coat cell culture wells, as well as naked cell culture treated plastic (TCT), on which KC can be cultured, as a control. Serum-free experimental conditions was chosen to avoid possible interactions between the matrices and serum proteins that potentially could give rise to increased cell adherence.
For this purpose, we used two FN-silk variants where a linear RGD presentation is expected (FIG. 1a). The first variant (FNVS; SEQ ID NO: 15), contains the original sequence of the RGD-containing motif in fibronectin, to show the effect of the native flanking amino acids without influence of the loop conformation. In the second variant (FNSS; SEQ ID NO: 14), the two flanking cysteines in FNCC were substituted for serine, which resembles cysteine but lacks the —SH-group and is therefore unable to form disulfide bridges. The different FN-silk variants, as well as RGD-silk (SEQ ID NO: 16) and WT-silk (SEQ ID NO: 2), were evaluated with primary KC. Cells were analyzed both for early attachment (FIG. 5), spreading and formation of stress fibers (FIG. 6), and focal adhesions (FIG. 7). Early attachment assay and cellular stainings were performed as detailed in Example 6.

[2] = tested on: Normal human epidermal keratinocytes (KC); test: Formation of focal adhesions (F-actin/vinculin staining), keratinocytes; settings: 3 h adherence, 63× magnification
Description: Cells were harvested at passage 3-8, seeded at 3500/cm^2 and allowed to adhere onto films for 20 min, 1 or 3 hours in chamber slides. After gentle washing, cells were fixed with 4% paraformaldehyde, permeabilized with 0.1% Triton X-100 in PBS, and blocked with 1% bovine serum albumin (BSA, AppliChem) in PBS.
Primary antibody were used at the following concentrations in 1% BSA: mouse anti human vinculin (Sigma V9131) at 9.5 μg/ml, mouse-anti human beta1-integrin (activated conformation, clone HUTS-4) at 3.3 μg/mL, or mouse-anti human alpha5-integrin (ligand bound conformation, clone SNAKA-51) at 2.5 μg/mL, both Millipore.
Secondary antibody was AlexaFlour488 goat anti mouse IgG (H+L), cross adsorbed (Invitrogen), used at 1:500. Phalloidin-AlexaFluor594 (Life Technologies) were used at 1:40 to detect filamentous actin. DAPI was used for nuclear staining. Slides were mounted in Fluorescence mounting medium (Dako, Copenhagen).
For microscopic analysis of cell adhesion (formation of focal adhesions and stress fibers), a confocal microscope was used (Carl Zeiss LSM 710) at 10× and 63× magnification.
Quality of focal adhesions were graded from 1-4 regarding presence of small and dim focal adhesion (=1p), small and distinct focal adhesions (=2p), abundant focal adhesions (=3p) and large and bright focal adhesions (=4p), and multiplied with the portion of positive cells expressing this specific type of focal adhesions (0-4, where 0≈none of, 1≈one fourth of, 2≈half of, 3≈three fourths of, and 4≈all of the focal adhesion-positive cells.)
Formation of focal adhesions within the cells was analyzed after 3 h by staining for F-actin in combination with vinculin, which is one of the major components of the focal adhesion complex. Co-staining of F-actin and vinculin is thus a sign of integrin-involved, well established binding of cells to the underlying substrate. Focal adhesions appear as yellow-greenish elongations of the F-actin filaments, often situated close to the cell membrane.
The results from the analysis of formation and characterization of focal adhesions in KC after adherence for 3 h onto films of WT-silk (SEQ ID NO: 2) or silk functionalized with FNCC (SEQ ID NO: 13), FNVS (SEQ ID NO: 15), FNSS (SEQ ID NO: 14) or RGD (SEQ ID NO: 16) is presented in FIG. 7. Slides were scanned with a confocal microscope at 10× for overview (FIG. 7a) and at 63× for details (FIG. 7b). Two types of grading of the focal adhesions in the cells were performed.

[3] = tested on: Normal human epidermal keratinocytes (KC); test: Cell spreading by F-actin staining, keratinocytes; settings: 3 h adhesion; for spreading of KC (total cell area in 4× micrographs): seeding 3 500/cm^2
Description: Cells were harvested at passage 3-8, seeded at 3500/cm^2 and allowed to adhere onto films for 20 min, 1 or 3 hours in chamber slides. After gentle washing, cells were fixed with 4% paraformaldehyde, permeabilized with 0.1% Triton X-100 in PBS, and blocked with 1% bovine serum albumin (BSA, AppliChem) in PBS. Secondary antibody was AlexaFlour488 goat anti mouse IgG (H+L), cross adsorbed (Invitrogen), used at 1:500. Phalloidin-AlexaFluor594 (Life Technologies) were used at 1:40 to detect filamentous actin. DAPI was used for nuclear staining. Slides were mounted in Fluorescence mounting medium (Dako, Copenhagen). The stained cells were analyzed using an inverted microscope (Nikon Eclipse Ti) at 4× and 10× magnification. Excitation at 563/45 nm and detection at 625/50 nm was used for red fluorescence, whereas excitation with 387/11 nm and detection at 447/60 nm was used to monitor blue fluorescence. By staining for F-actin, cell spreading and formation of stress fibers in KC after 3 h adhesion were investigated (FIG. 6).

Row | Molecule | cell coverage area within a defined region (9.12 mm^2) ([1]; KC, 1 h adhesion, comparison with bovine fibronectin coating and TCT plastic, serum-free) | quality (grading) of focal adhesions [2] | cell morphology (F-actin) [3] | adhesion in each individual experiment [1] | spreading of KC (total cell area in 4× micrographs) [3]
1 | BFN: fibronectin from bovine plasma (Sigma-Aldrich F1137), coated at 5 μg/cm^2 [reference compound] | bound equally well to the BFN and the FNCC-silk after 1 h adherence, and importantly both significantly better than TCT | – | – | – | –
2 | RGD-silk: 4RepCT silk with the linear RGD containing peptide (SEQ ID NO 12) of Widhe et al. (2013) (protein, Fusion protein) GPNSRGDAGAASGQGGYGGLGQGGYGQGAGSSAAAAAAAAAAAAGGQGGQGQGGYGQGSGGSAAAAAAAAAAAAAAAGRGQGGYGQGSGGNAAAAAAAAAAAAAAAGQGGQGGYGRQSQGAGSAAAAAAAAAAAAAAGSGQGGYGGQGQGGYGQSSASASAAASAASTVANSVSRLSSPSAVSRVSSAVSSLVSNGQVNMAALPNIISNISSSVSASAPGASGCEVIVQALLEVITALVQIVSSSSVGYINPSAVNQITNVVANAMAQVMG | – | variation of focal adhesion quality is larger in cells on RGD, FNSS and FNVS than on FNCC-silk | a higher proportion of cells with a rounded appearance | – | –
3 | FNSS-silk: 4RepCT silk with linear control motif STGRGDSPAS (SEQ ID NO: 11), cysteines substituted for serines (protein, Fusion protein) GPNSSTGRGDSPASGSASGQGGYGGLGQGGYGQGAGSSAAAAAAAAAAAAGGQGGQGQGGYGQGSGGSAAAAAAAAAAAAAAAGRGQGGYGQGSGGNAAAAAAAAAAAAAAAGQGGQGGYGRQSQGAGSAAAAAAAAAAAAAAGSGQGGYGGQGQGGYGQSSASASAAASAASTVANSVSRLSSPSAVSRVSSAVSSLVSNGQVNMAALPNIISNISSSVSASAPGASGCEVIVQALLEVITALVQIVSSSSVGYINPSAVNQITNVVANAMAQVMG | – | both prominent and subtle focal adhesions | a higher proportion of cells with a rounded appearance | varied from being similar to RGD-silk to being only somewhat lower than on FNCC-silk | but not FNSS or FNVS films, gave a significantly increased spreading of KC compared to RGD-film
4 | FNVS-silk: 4RepCT silk with original fibronectin motif VTGRGDSPAS (SEQ ID NO: 9), linear native control (protein, Fusion protein) GPNSVTGRGDSPASGSASGQGGYGGLGQGGYGQGAGSSAAAAAAAAAAAAGGQGGQGQGGYGQGSGGSAAAAAAAAAAAAAAAGRGQGGYGQGSGGNAAAAAAAAAAAAAAAGQGGQGGYGRQSQGAGSAAAAAAAAAAAAAAGSGQGGYGGQGQGGYGQSSASASAAASAASTVANSVSRLSSPSAVSRVSSAVSSLVSNGQVNMAALPNIISNISSSVSASAPGASGCEVIVQALLEVITALVQIVSSSSVGYINPSAVNQITNVVANAMAQVMG | – | both prominent and subtle focal adhesions | a higher proportion of cells with a rounded appearance | varied from being similar to RGD-silk to being only somewhat lower than on FNCC-silk | but not FNSS or FNVS films, gave a significantly increased spreading of KC compared to RGD-film
